In US12186374B2 (Sanofi-Aventis Deutschland GmbH, priority 2014, dated 2025):

How the values were obtained:
[1] = test system: patients with Type 2 diabetes mellitus (T2DM); experiment: Major cardiovascular events adjudicated by CAC (Example 2); details: on-treatment period
[2] = test system: patients with Type 2 diabetes mellitus (T2DM); experiment: Standardized meal test: 2-hour glucose excursion and 2-hour PPG (Example 2); assay type: in vivo, human
Protocol: (§1) Patients will undergo a standardized meal challenge to assess fasting and postprandial glucose (central laboratory), as well as plasma glucose excursion.
(§2) The standardized meal contains approximately 600 kcal and is composed of 50 to 55% carbohydrate, 15 to 20% protein and 25 to 30% fat.
(§3) On the day of the standardized meal test, the patients will come to the investigational site in the morning, in fasting conditions for at least 8 hours and must not eat any food or drink, except water, before the scheduled standardized meal test. […] Patient in insulin glargine group will inject their insulin glargine at their usual injection time.
(§4) The standardized meal for all patients should be consumed within a 15-minute period. Blood for plasma glucose is drawn 5 times: • 30 minutes prior to the start of the meal and before IMP administration if the IMP is injected before breakfast; • Just before the start of the standardized meal (0 minute), • 30 minutes after the start of the standardized meal, • 60 minutes after the start of the standardized meal, • 120 minutes after the start of the standardized meal.
Similar MMRM method or ANCOVA was applied on continuous secondary efficacy endpoints and Cochran-Mantei-Haenszel method stratified by randomization strata was applied on categorical efficacy endpoints.

patients with T2DM [3] = experiment: HbA1c change from baseline to Week 30 (Example 3, with or without metformin); assay type: in vivo, human
Protocol: For the eligibility and efficacy assessments of the study, HbA1c is measured by a certified level I “National Glycohemoglobin Standardization Program” (NGSP) central laboratory.
Methodology: This was an open-label, 1:1 randomized, active-controlled, 2-arm, 30-week treatment duration, parallel-group multinational and multicenter study. The randomization was stratified by value of HbA1cat Visit 5 (Week −1) (<8%, ≥8%) and metformin use at screening (Y, N).
Diagnosis and criteria for inclusion: Inclusion criteria: Patients with type 2 diabetes mellitus diagnosed for at least 1 year and inadequately controlled on their current antidiabetic treatment. Patients had to be treated with basal insulin for at least 6 months at a stable daily dose of 15 to 40 U, alone or combined with 1 or 2 oral anti-diabetic drugs ((metformin, an SU, a glinide, a DPP-4 inhibitor, or a SGLT-2 inhibitor) at a stable dose for at least 3 months. Key exclusion criteria for randomization (at the end of the run-in phase): HbA1c<7% or >10% at Visit 5 (week −1); mean fasting SMPG >140 mg/dL (7.8 mmol/L) for the 7 days before the randomization Visit (Visit 6); average insulin glargine daily dose <20 U or >50 U calculated for the last 3 days before Visit 6.
Efficacy analysis was based on modified intent-to-treat (mITT) population using efficacy assessment collected during the study, including those obtained after IMP discontinuation or introduction of rescue therapy. The mITT population consisted of all randomized patients who had both a baseline assessment and at least one post-baseline assessment of any primary or secondary efficacy variables.
The primary efficacy endpoint was analyzed using a mixed-effect model with repeated measures (MMRM). The MMRM model included the treatment groups, randomization strata, visit, treatment-by-visit interaction, and country as fixed-effect factors, and the baseline HbA1c-by-visit interaction as covariate.

patients with T2DM [4] = experiment: Pen-related event questionnaire (Example 3); details: on-treatment period
patients with T2DM [5] = experiment: Symptomatic hypoglycemia (Example 3)
patients with T2DM [6] = experiment: Standardized meal test: 2-hour glucose excursion and 2-hour PPG (Example 3); assay type: in vivo, human
Protocol: as §1, §2, §3, §4
Similar MMRM method or analysis of covariance (ANCOVA) was applied on continuous secondary efficacy endpoints and the Cochran-Mantei-Haenszel method stratified by randomization strata was applied for categorical efficacy endpoints.

[7] = Example 2, baseline, standardized meal test
[8] = standardized meal test, mITT population
[9] = on-treatment period, Safety population
[10] = plasma glucose <60 mg/dL [[…]], on-treatment period, Safety population
[11] = plasma glucose ≤70 mg/dL [[…]], on-treatment period, Safety population
[12] = standardized meal test, ANCOVA, mITT population

## Gly(A21)-Arg(B31)-Arg(B32)-human insulin [Insulin Glargine]
[1]; Example 2
  TEAEs adjudicated as major cardiovascular events by CAC, % of patients: 1.5%
  TEAEs adjudicated as major cardiovascular events by CAC, number of patients: 7 patients
[1]; Safety population
  Major cardiovascular events by CAC: Cardiovascular death: 2 (0.4%) n(%)
  Major cardiovascular events by CAC: Coronary revascularization procedure: 1 (0.2%) n(%)
  Major cardiovascular events by CAC: Hospitalization for heart failure: 2 (0.4%) n(%)
  Major cardiovascular events by CAC: Hospitalization for unstable angina: 1 (0.2%) n(%)
  Major cardiovascular events by CAC: Non-fatal myocardial infarction: 0 n(%)
  Major cardiovascular events by CAC: Non-fatal stroke: 1 (0.2%) n(%)
  Patients with events adjudicated as major cardiovascular events by CAC: Any: 7 (1.5%) n(%)
[2]; ANCOVA, mITT population
  2-hour plasma glucose excursion, change from baseline to Week 30 (LOCF), LS Mean (SE): −0.18 (0.157) mmol/L
[2]; Example 2
  2-hour PPG change from baseline to Week 30 (LOCF) Mean (SD): −3.26 (3.54) mmol/L
  2-hour PPG change from baseline to Week 30 (LOCF) Median: -3.35 mmol/L
[2]; Example 2, ANCOVA
  2-hour PPG change from baseline to Week 30 (LOCF) LS Mean (SE): −3.31 (0.178) mmol/L
[2]; Example 2, ANCOVA, listed as insulin glargine
  2-hour PPG change from baseline to Week 30 (LOCF) LS Mean (SE): -3.31 mmol/L
[2]; Example 2, Week 30 (LOCF)
  2-hour postprandial plasma glucose Week 30 (LOCF) Mean (SD): 11.35 (3.12) mmol/L
  2-hour postprandial plasma glucose Week 30 (LOCF) Median: 11.20 mmol/L
[2]; Example 2, baseline to Week 30, standardized liquid breakfast meal
  2-hour glucose excursion, LS mean change: -0.18 mmol/L
[2]; [7]
  2-hour postprandial plasma glucose Baseline Mean (SD): 14.61 (3.64) mmol/L
  2-hour postprandial plasma glucose Baseline Median: 14.50 mmol/L
[2]; [8]
  2-hour plasma glucose excursion, Week 30 (LOCF), Mean (SD): 4.80 (2.90) mmol/L
  2-hour plasma glucose excursion, Week 30 (LOCF), Median: 4.70 mmol/L
  2-hour plasma glucose excursion, change from baseline to Week 30 (LOCF), Mean (SD): −0.22 (2.86) mmol/L
  2-hour plasma glucose excursion, change from baseline to Week 30 (LOCF), Median: -0.10 mmol/L
Patients with T2DM [3]; Example 3
  Mean HbA1c level at Week 30: 7.5%
Patients with T2DM [3]; MMRM, mITT population
  HbA1c change from baseline to Week 30, LS Mean (SE): −0.62 (0.055) %
Patients with T2DM [3]; mITT population
  HbA1c at Week 30, Mean (SD): 7.48 (0.91) %
  HbA1c at Week 30, Median: 7.40%
Patients with T2DM [4]; Example 3
  Patients reporting pen-related events, %: 4.1%
  Patients reporting pen-related events, number: 15 patients
Patients with T2DM [4]; Safety population
  % of patients with events reported in pen-related event questionnaire: Any pen-related events: 4.1%
  % of patients with events reported in pen-related event questionnaire: Not associated with a clinical event: 4.1%
  Number of patients with events reported in pen-related event questionnaire: Any pen-related events: 15
  Number of patients with events reported in pen-related event questionnaire: Associated with a clinical event: 0
  Number of patients with events reported in pen-related event questionnaire: Not associated with a clinical event: 15
Patients with T2DM [5]; Example 3
  Documented symptomatic hypoglycemia event rate per patient-year: 4.22 per patient-year
  Patients with at least one event of documented (PG ≤70 mg/dL) symptomatic hypoglycemia: 42.5%
  Severe symptomatic hypoglycemia, % of patients: 0.3%
  Severe symptomatic hypoglycemia, number of events: 1 events
  Severe symptomatic hypoglycemia, number of patients: 1 patients
Patients with T2DM [5]; [9]
  Probable symptomatic hypoglycaemia: Number of events: 29
  Probable symptomatic hypoglycaemia: Number of events per patient year: 0.14
  Probable symptomatic hypoglycaemia: Number of patients with events per patient year: 0.10
  Probable symptomatic hypoglycaemia: patients with events, %: (5.5%)
  Severe symptomatic hypoglycaemia: Number of events: 1
  Severe symptomatic hypoglycaemia: Number of events per patient year: <0.01
  Severe symptomatic hypoglycaemia: Number of patients with events per patient year: <0.01
  Severe symptomatic hypoglycaemia: patients with events, %: (0.3%)
  Symptomatic hypoglycemia: Number of events: 910
  Symptomatic hypoglycemia: Number of events per patient year: 4.36
  Symptomatic hypoglycemia: Number of patients with events per patient year: 0.77
  Symptomatic hypoglycemia: patients with events, %: (44.1%)
Patients with T2DM [5]; [10]
  Documented symptomatic hypoglycaemia: Number of events: 235
  Documented symptomatic hypoglycaemia: Number of events per patient year: 1.13
  Documented symptomatic hypoglycaemia: Number of patients with events per patient year: 0.40
  Documented symptomatic hypoglycaemia: patients with events, %: (22.7%)
Patients with T2DM [5]; [11]
  Documented symptomatic hypoglycaemia: Number of events: 880
  Documented symptomatic hypoglycaemia: Number of events per patient year: 4.22
  Documented symptomatic hypoglycaemia: Number of patients with events per patient year: 0.74
  Documented symptomatic hypoglycaemia: patients with events, %: (42.5%)
Patients with T2DM [6]; Example 3
  2-hour PPG, LS mean change: -1.39 mmol/L
Patients with T2DM [6]; Example 3, standardized liquid breakfast meal
  2-hour glucose excursion, LS mean change from baseline to Week 30: -0.47 mmol/L
Patients with T2DM [6]; [12]
  2-hour plasma glucose excursion, change from baseline to Week 30 (LOCF), LS Mean (SE): −0.47 (0.274) mmol/L
  2-hour postprandial plasma glucose change from baseline to Week 30 (LOCF), LS Mean (SE): −1.39 (0.310) mmol/L
Patients with T2DM [6]; [8]
  2-hour plasma glucose excursion at Week 30 (LOCF), Mean (SD): 6.71 (3.34) mmol/L
  2-hour plasma glucose excursion at Week 30 (LOCF), Median: 6.40 mmol/L
  2-hour plasma glucose excursion, change from baseline to Week 30 (LOCF), Mean (SD): −0.44 (3.34) mmol/L
  2-hour plasma glucose excursion, change from baseline to Week 30 (LOCF), Median: -0.30 mmol/L
  2-hour postprandial plasma glucose at Week 30 (LOCF), Mean (SD): 13.41 (3.83) mmol/L
  2-hour postprandial plasma glucose at Week 30 (LOCF), Median: 13.10 mmol/L
  2-hour postprandial plasma glucose change from baseline to Week 30 (LOCF), Mean (SD): −1.56 (4.20) mmol/L
  2-hour postprandial plasma glucose change from baseline to Week 30 (LOCF), Median: -1.50 mmol/L
